Legend:
[1] = molecular target: E. coli DnaB replicative helicase (E. coli, UniProt P0ACB0 1-471); assay: negative-stain electron microscopy
[2] = molecular target: the molecule itself; assay: negative-stain electron microscopy

Sequence of E. coli DnaB replicative helicase (P0ACB0 whole entry): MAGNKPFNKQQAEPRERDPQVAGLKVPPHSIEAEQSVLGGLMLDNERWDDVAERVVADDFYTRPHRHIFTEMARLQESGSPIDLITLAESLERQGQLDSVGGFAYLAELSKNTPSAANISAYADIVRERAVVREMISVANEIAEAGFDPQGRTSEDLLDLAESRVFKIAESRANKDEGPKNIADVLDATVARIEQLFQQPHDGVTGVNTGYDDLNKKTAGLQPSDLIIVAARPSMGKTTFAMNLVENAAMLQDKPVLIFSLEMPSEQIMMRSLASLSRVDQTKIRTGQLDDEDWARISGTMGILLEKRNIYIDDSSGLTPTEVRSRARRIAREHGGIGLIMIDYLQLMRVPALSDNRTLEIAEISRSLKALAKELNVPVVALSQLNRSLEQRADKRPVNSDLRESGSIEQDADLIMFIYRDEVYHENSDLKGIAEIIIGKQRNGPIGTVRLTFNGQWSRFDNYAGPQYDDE

- stoichiometry N [1]: 6 DnaC subunits per DnaB hexamer
B1: E. coli DnaC helicase loader (natural protein, UniProt P0AEF0 1-245, looked up)
chain: MKNVGDLMQRLQKMMPAHIKPAFKTGEELLAWQKEQGAIRSAALERENRAMKMQRTFNRSGIRPLHQNCSFENYRVECEGQMNALSKARQYVEEFDGNIASFIFSGKPGTGKNHLAAAICNELLLRGKSVLIITVADIMSAMKDTFRNSGTSEEQLLNDLSNVDLLVIDEIGVQTESKYEKVIINQIVDRRSSSKRPTGMLTNSNMEEMTKLLGERVMDRMRLGNSLWVIFNWDSYRSRVTGKEY
- stoichiometry N [2]: 6
